This is an account of results in patent US5602102A, “Dipeptidyl peptidase-I inhibitors and uses thereof” (Board of Regents, The Univ. of TX System, priority 1992, dated 1997).

One assay deals with NK cells (Yac-1 targets). Description: NK function of spleen cells, specific lysis of Yac-1. The following applies: spleen cells of saline injected mice treated with 250 μM Leu-Leu-Ome. It counts as in vivo, murine. The source says: (§1) The Yac-1 represents a standard target for natural killer (NK) cells.
The next assay concerns CTL precursors. As to the kind of experiment: MLC activated anti-H-2 specific CTL from spleen cells. In kind it is in vivo, murine. The following applies: spleen cells of saline injected mice treated with 250 μM Leu-Leu-Ome.
Description: as §1
Unlike control cells, spleen cells in which DPPI activity was inhibited were resistant to any discernible toxic effects of Leu--Leu--OMe on NK function of the capacity to generate anti-H-2^d specific CTL.

Assay [1] concerns BLT esterase (granzyme A). As to the kind of experiment: BLT esterase activity in IL2 activated human PBL. It counts as cell-based. The following applies: IL2 activated Leu--Leu--OMe treated PBL. The text has this:
The cells were then harvested, disrupted in a dounce homogenizer, the nuclei pelleted and residual intact cells removed by centrifugation and the granule fraction localized on discontinuous Percoll gradients. […] Thus, Leu--Leu--OMe sensitive, DPPI enriched cells are the source of BLT esterase in such IL2 activated cultures.

Assay [2] concerns the target T1, BLT esterase (granzyme A) (Mus musculus, UniProt P11032).
T1 construct: endogenous in cells; host or cells: alloreactive murine CD8(+) T cells, whole cells or Percoll granule fractions
As to the kind of experiment: BLT esterase activity in granule fractions of control CD8(+) CTL, in vitro incubation with inhibitor. In kind it is biochemical, murine. Conditions: in vitro incubation with 1 mM. The procedure:
193, Academic Press, New York).
Cells were incubated for 5 minutes on ice in hypotonic homogenization buffer (0.1× PBS salts, 1 mM MgCl2). The cells were disrupted with a glass pestle homogenizer and isotonic conditions restored by the addition of 10× PBS salts. The homogenates were cleared of cell debris and intact cells by centrifugation at 600 xg for 2 minutes. The soluble extracts were layered on discontinuous Percoll gradients (6 ml 39%, 6 ml 90% Percoll) and centrifuged .for one hour at 17,000 xg. The gradients were fractionated by removing 1 ml aliquots from the top.
Alloreactive CD8(+) T-cells were homogenized and fractionated on discontinuous Percoll gradients.

Assay [3] addresses human dipeptidyl peptidase-I (Homo sapiens, UniProt P53634). As to the kind of experiment: Effect of protease inhibitors on DPPI activity (purified enzyme). It counts as biochemical. On the set-up: Human DPPI is now established to constitute a 200,000 Da glycoprotein with 24,000 Da subunits; from tissue; host or cells: human cadaveric spleen. Conditions: screening conditions pH 5.5. The protocol:
Note. Purified human dipeptidyl peptidaseI (0.4 μg) was preincubated
with each of the inhibitors at the stated concentration for 15 min at
37° C.. Each sample was diluted 3fold with assay buffer containing
substrate and incubated for an additional 20 min.

A further assay addresses DPPI (Homo sapiens, UniProt P53634). The following applies: cited from earlier work.
The target in assay [4] is human leukocyte elastase proenzyme (human) (UniProt P08246).
For assay [5], the target named is human granzyme A proenzyme (human) (UniProt P12544).
In assay [6] the target is propeptide-bearing form of human cathepsin G (human) (UniProt P08311).

Where a SMILES comes first, the peptide text is derived from it. The star is where a group is joined. Cbz = O=C(OCc1ccccc1)*; CHN2 = [N-]=[N+]=C*

T1 sequence (P11032 29-260): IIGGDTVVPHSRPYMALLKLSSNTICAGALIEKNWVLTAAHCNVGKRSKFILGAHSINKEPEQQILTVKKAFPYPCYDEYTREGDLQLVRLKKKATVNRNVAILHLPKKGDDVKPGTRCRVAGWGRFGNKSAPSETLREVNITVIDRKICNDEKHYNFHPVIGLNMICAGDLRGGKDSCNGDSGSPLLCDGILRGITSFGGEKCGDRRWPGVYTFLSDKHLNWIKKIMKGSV

For the compound `COC(=O)[C@H](CC(C)C)NC(=O)[C@@H](N)CC(C)C` [Leu--Leu--OMe], the “NK Function % Specific Lysis Yac-1” value with NK cells (Yac-1 targets) (20:1) and in the assay on NK cells (Yac-1 targets) (80:1) was below 1 % Specific Lysis throughout. Further, the “MLC Activated Anti-H-2° Spec. CTL” value amounted to 1 with CTL precursors (20:1) and 3 in the assay on CTL precursors (80:1). Further, in assay [1], the “BLT esterase activity” value is “could not be detected”.

Consider `O=S(=O)(F)Cc1ccccc1` [PMSF, phenylmethylsulfonylfluoride], for which the “BLT esterase activity in granule fractions inhibited” value in assay [2] was above 95%. Also, in [3], the “effect on DPPI activity (in words)” value is “no effect”.

With `[N-]=[N+]=CC(=O)C(Cc1ccccc1)NC(=O)CNC(=O)C(Cc1ccccc1)NC(=O)OCc1ccccc1` (stereo not drawn) [Z--Phe--Gly--Phe--CHN2] (Cbz-Phe-Gly-Phe-CHN2; configuration not given here), at DPPI, the “less reactive with DPPI than Gly--Phe--CHN2” value is on record as 3 orders of magnitude.

Regarding “human dipeptidyl peptidase-I (from UniProt P53634) (enzyme)”, the hydrolysis of synthetic peptide substrate by purified human DPPI (values at 100 µM and 500 µM substrate; value given is at 500 µM) turned out to be 120 not printed with Ala-Ala-Val-Ala-pNA; 1000 not printed with Ala-Ala-pNA; 0 not printed with Arg-Arg-βNA; 1000 not printed with Asp-Ala-βNA; 0 not printed with CBZ-Arg-Arg-βNA; 0 not printed with CBZ-Gly-Pro-Arg-AMC. Besides, the hydrolysis of synthetic peptide substrate by purified human DPPI (values at 100 µM and 500 µM substrate; value given is at 500 µM) in the assay with CBZ-Val-Leu-Arg-MNA is 0 not printed; in the assay with Gly-Arg-MNA it was 4750 not printed; with Gly-Phe-AMC, 6120 not printed; in the assay with Gly-Phe-MNA, 5750 not printed; in the assay with Gly-Phe-pNA, 380 not printed; in the assay with Gly-Phe-βNA, 4380 not printed. The hydrolysis of synthetic peptide substrate by purified human DPPI (values at 100 µM and 500 µM substrate; value given is at 500 µM) with Gly-Pro-MNA was 0 not printed; with Gly-Pro-βNA it was 0 not printed; with Pro-Phe-Arg-AMC, 0 not printed; with Ser-Tyr-MNA, 1750 not printed; in the assay with Ser-Tyr-βNA, 2000 not printed; in the assay with Suc-Ala-Ala-Ala-pNA, 0 not printed. This compound also came in with a hydrolysis of synthetic peptide substrate by purified human DPPI (values at 100 µM and 500 µM substrate; value given is at 500 µM) with Suc-Ala-Ala-Pro-Phe-pNA of 0 not printed. Besides, the generation of elastase activity in U-937 cells with endogenous DPPI inhibited for 48 hours in assay [4] stood at 65 % decrease. The compound further showed a generation of granzyme A (BLT esterase) activity in human LAK cells with endogenous DPPI inhibited in [5] below 90 % reduction. Further, the processing of newly synthesized cathepsin G to the active form in U-937 cells with endogenous DPPI inhibited (3H-Ile pulse-chase, aprotinin-agarose, radiosequencing) in assay [6] is < 10 % of control.
